Source: patent publication US20260250318A1, “COMPOSITIONS AND METHODS FOR CROSSING THE BLOOD BRAIN BARRIER” (VOYAGER THERAPEUTICS, INC., priority 2022, published 2026)

T1: ALPL (Homo sapiens, UniProt P05186)
T1 sequence (P05186 18-501): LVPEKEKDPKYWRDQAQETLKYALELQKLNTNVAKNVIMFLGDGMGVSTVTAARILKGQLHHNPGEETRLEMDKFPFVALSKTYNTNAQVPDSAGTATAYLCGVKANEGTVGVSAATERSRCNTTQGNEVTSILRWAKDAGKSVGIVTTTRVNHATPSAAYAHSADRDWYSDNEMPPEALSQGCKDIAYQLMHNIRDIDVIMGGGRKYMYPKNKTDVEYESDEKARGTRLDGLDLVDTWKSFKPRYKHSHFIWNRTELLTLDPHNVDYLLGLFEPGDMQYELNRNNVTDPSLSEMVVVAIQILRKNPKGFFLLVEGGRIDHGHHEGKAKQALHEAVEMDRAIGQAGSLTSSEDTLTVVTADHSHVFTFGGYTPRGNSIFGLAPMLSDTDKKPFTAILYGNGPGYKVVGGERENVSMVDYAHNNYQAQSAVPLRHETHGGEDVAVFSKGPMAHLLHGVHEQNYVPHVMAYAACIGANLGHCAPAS

T2: human ALPL expressed on cells (alkaline phosphatase tissue-nonspecific isozyme, NM_000478.4) (human, UniProt P05186 18-501)
T2 sequence: T1 sequence (P05186 18-501)

T3: ALPL with a deletion of the ER localization signal (ALPL transcript variant 2, NM_001127501) (human, UniProt P05186 56-501)
T3 sequence: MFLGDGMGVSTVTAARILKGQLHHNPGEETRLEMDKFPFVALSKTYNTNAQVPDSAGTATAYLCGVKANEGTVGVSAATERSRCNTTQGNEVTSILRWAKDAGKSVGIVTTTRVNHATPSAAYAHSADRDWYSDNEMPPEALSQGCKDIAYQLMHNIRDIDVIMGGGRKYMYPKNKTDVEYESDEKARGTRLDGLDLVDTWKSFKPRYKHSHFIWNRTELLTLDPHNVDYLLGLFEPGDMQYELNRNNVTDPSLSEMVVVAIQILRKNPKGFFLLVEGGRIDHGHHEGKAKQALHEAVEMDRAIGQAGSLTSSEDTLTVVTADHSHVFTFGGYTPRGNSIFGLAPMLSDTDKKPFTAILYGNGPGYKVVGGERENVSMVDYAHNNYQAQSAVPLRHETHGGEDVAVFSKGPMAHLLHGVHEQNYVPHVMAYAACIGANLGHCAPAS

T4: murine ALPL ortholog expressed on HEK 293T cells (NM_001287172.1) (mouse, UniProt P09242 18-501)
T4 sequence: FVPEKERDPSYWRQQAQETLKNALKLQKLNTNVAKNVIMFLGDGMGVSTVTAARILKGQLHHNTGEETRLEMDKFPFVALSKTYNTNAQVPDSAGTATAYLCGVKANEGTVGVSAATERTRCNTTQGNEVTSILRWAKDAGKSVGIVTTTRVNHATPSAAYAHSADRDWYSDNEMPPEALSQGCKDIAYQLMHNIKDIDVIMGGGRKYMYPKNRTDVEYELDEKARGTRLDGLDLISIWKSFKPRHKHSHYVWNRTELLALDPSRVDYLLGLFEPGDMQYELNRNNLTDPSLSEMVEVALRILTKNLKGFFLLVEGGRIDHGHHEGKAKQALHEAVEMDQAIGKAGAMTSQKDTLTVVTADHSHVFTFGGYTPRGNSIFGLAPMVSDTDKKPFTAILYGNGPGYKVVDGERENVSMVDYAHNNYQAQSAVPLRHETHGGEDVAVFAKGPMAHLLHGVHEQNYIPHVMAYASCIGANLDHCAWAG

T5: AAVR (universal AAV entry factor) expressed on HEK 293T cells (UniProt Q8IZA0 1-1049)
T5 construct: whole, on cells; also called AAVR positive control
T5 sequence: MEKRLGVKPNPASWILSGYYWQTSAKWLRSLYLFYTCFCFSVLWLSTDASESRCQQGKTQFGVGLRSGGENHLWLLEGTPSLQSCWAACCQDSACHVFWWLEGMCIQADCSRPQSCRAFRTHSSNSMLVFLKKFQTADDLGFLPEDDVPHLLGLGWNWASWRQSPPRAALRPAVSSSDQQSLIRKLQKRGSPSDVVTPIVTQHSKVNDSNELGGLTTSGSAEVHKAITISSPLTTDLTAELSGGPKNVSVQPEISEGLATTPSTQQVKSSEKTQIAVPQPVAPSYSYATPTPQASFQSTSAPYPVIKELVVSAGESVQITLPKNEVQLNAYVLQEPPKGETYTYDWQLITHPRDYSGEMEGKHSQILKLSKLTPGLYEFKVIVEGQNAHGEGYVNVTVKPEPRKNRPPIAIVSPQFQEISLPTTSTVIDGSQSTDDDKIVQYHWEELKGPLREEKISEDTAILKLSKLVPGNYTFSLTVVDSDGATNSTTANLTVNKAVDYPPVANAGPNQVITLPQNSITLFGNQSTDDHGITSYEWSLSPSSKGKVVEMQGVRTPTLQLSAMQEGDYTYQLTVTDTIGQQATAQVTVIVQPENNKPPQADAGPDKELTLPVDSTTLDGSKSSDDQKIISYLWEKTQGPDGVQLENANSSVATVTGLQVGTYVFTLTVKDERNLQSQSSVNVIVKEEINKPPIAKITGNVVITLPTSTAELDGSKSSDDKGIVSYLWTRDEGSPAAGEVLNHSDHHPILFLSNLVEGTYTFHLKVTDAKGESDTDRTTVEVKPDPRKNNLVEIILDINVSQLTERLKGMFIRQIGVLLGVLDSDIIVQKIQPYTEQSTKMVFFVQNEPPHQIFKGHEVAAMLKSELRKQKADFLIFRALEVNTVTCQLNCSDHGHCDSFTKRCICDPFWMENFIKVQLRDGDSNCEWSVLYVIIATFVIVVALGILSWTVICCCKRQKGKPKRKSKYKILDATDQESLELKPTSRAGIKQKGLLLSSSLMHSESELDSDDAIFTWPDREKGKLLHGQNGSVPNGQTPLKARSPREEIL

B1: TTM-001 capsid variant (AAV particle comprising the TTM-001 AAV9 capsid variant) (other)
chain 1: MAADGYLPDWLEDNLSEGIREWWALKPGAPQPKANQQHQDNARGLVLPGYKYLGPGNGLDKGEPVNAADAAALEHDKAYDQQLKAGDNPYLKYNHADAEFQERLKEDTSFGGNLGRAVFQAKKRLLEPLGLVEEAAKTAPGKKRPVEQSPQEPDSSAGIGKSGAQPAKKRLNFGQTGDTESVPDPQPIGEPPAAPSGVGSLTMASGGGAPVADNNEGADGVGSSSGNWHCDSQWLGDRVITTSTRTWALPTYNNHLYKQISNSTSGGSSNDNAYFGYSTPWGYFDFNRFHCHFSPRDWQRLINNNWGFRPKRLNFKLFNIQVKEVTDNNGVKTIANNLTSTVQVFTDSDYQLPYVLGSAHEGCLPPFPADVFMIPQYGYLTLNDGSQAVGRSSFYCLEYFPSQMLRTGNNFQFSYEFENVPFHSSYAHSQSLDRLMNPLIDQYLYYLSKTINGSGSPHSKAQNQQTLKFSVAGPSNMAVQGRNYIPGPSYRQQRVSTTVTQNNNSEFAWPGASSWALNGRNSLMNPGPAMASHKEGEDRFFPLSGSLIFGKQGTGRDNVDADKVMITNEEEIKTTNPVATESYGQVATNHQSAQAQAQTGWVQNQGILPGMVWQDRDVYLQGPIWAKIPHTDGNFHPSPLMGGFGMKHPPPQILIKNTPVPADPPTAFNKDKLNSFITQYSTGQVSVEIEWELQKENSKRWNPEIQYTSNYYKSNNVEFAVNTEGVYSEPRPIGTRYLTRNL
chain 2: TAPGKKRPVEQSPQEPDSSAGIGKSGAQPAKKRLNFGQTGDTESVPDPQPIGEPPAAPSGVGSLTMASGGGAPVADNNEGADGVGSSSGNWHCDSQWLGDRVITTSTRTWALPTYNNHLYKQISNSTSGGSSNDNAYFGYSTPWGYFDFNRFHCHFSPRDWQRLINNNWGFRPKRLNFKLFNIQVKEVTDNNGVKTIANNLTSTVQVFTDSDYQLPYVLGSAHEGCLPPFPADVFMIPQYGYLTLNDGSQAVGRSSFYCLEYFPSQMLRTGNNFQFSYEFENVPFHSSYAHSQSLDRLMNPLIDQYLYYLSKTINGSGSPHSKAQNQQTLKFSVAGPSNMAVQGRNYIPGPSYRQQRVSTTVTQNNNSEFAWPGASSWALNGRNSLMNPGPAMASHKEGEDRFFPLSGSLIFGKQGTGRDNVDADKVMITNEEEIKTTNPVATESYGQVATNHQSAQAQAQTGWVQNQGILPGMVWQDRDVYLQGPIWAKIPHTDGNFHPSPLMGGFGMKHPPPQILIKNTPVPADPPTAFNKDKLNSFITQYSTGQVSVEIEWELQKENSKRWNPEIQYTSNYYKSNNVEFAVNTEGVYSEPRPIGTRYLTRNL
chain 3: MASGGGAPVADNNEGADGVGSSSGNWHCDSQWLGDRVITTSTRTWALPTYNNHLYKQISNSTSGGSSNDNAYFGYSTPWGYFDFNRFHCHFSPRDWQRLINNNWGFRPKRLNFKLFNIQVKEVTDNNGVKTIANNLTSTVQVFTDSDYQLPYVLGSAHEGCLPPFPADVFMIPQYGYLTLNDGSQAVGRSSFYCLEYFPSQMLRTGNNFQFSYEFENVPFHSSYAHSQSLDRLMNPLIDQYLYYLSKTINGSGSPHSKAQNQQTLKFSVAGPSNMAVQGRNYIPGPSYRQQRVSTTVTQNNNSEFAWPGASSWALNGRNSLMNPGPAMASHKEGEDRFFPLSGSLIFGKQGTGRDNVDADKVMITNEEEIKTTNPVATESYGQVATNHQSAQAQAQTGWVQNQGILPGMVWQDRDVYLQGPIWAKIPHTDGNFHPSPLMGGFGMKHPPPQILIKNTPVPADPPTAFNKDKLNSFITQYSTGQVSVEIEWELQKENSKRWNPEIQYTSNYYKSNNVEFAVNTEGVYSEPRPIGTRYLTRNL

What was measured:
ALPL = target: T1, ALPL; experiment: Inhibition of TTM-002 transduction by small molecule ALPL inhibitors in HeLa cells expressing ALPL; format: cell-based; parameters: endogenous in cells; host or cells: HeLa
Description: An inhibitor of ALPL was also investigated to determine if blocking the ALPL receptor would reduce cellular transduction of the TTM-002 capsid variant. […] The inhibitor or a vehicle control (equivalent amount of DMSO) was added to HeLa cells expressing ALPL 1 hour prior to transduction with an AAV viral particle comprising the TTM-002 capsid variant or an AAV9 control capsid and expressing a GFP-luciferase transgene under the control of a CAG promoter. The cells were then transduced with 1E4 VG/cell of an AAV particle comprising the TTM-002 capsid variant or an AAV9 control capsid. Media and virus were removed 4 hours post transduction and luciferase activity was measured (RLU) 24 hours post transduction.

[1] = target: T2, human ALPL expressed on cells (alkaline …); experiment: cell-based or functional assay
[2] = target: T2, human ALPL expressed on cells (alkaline …); experiment: cell-based or functional assay; remark: listed apart in the source
[3] = target: T3, ALPL with a deletion of the ER …; experiment: cell-based or functional assay
[4] = target: T2, human ALPL expressed on cells (alkaline …); experiment: cell-based or functional assay; remark: listed apart in the source
[5] = target: T4, murine ALPL ortholog expressed on HEK …; experiment: cell-based or functional assay
[6] = target: T5, AAVR (universal AAV entry factor) …; experiment: binding/internalization: AAV incubated 2 or 3 h with AAVR transfected HEK 293T cells, washed, viral genomes quantified
[7] = target: T2, human ALPL expressed on cells (alkaline …); experiment: binding/internalization: AAV incubated 2 or 3 h with ALPL transfected HEK 293T cells, washed, viral genomes quantified

Row | Molecule | IC50 (ALPL) [pM] | effect on TTM-002 transduction (ALPL) | luciferase activity, fold change relative to pCMV6 transfected HEK 293T cells (ALPL transfected cells) [1] [fold] | fold change in luciferase activity relative to the pCMV6 control cells (cells transfected with ALPL) [2] [fold] | fold change in luciferase activity relative to the pCMV6 control cells (cells transfected with ALPL comprising a deletion of the ER localization signal) [3] [fold] | fold change in luciferase activity relative to the pCMV6 control cells (cells transfected with human ALPL protein) [4] [fold] | fold change in luciferase activity relative to the pCMV6 control cells (cells transfected with murine ALPL protein) [5] [fold] | fold change in viral gene expression (2^-ΔΔCT) relative to pCMV6 transfected cells [6] [fold] | fold change in viral gene expression (2^-ΔΔCT) relative to pCMV6 transfected cells [7] [fold]
1 | COc1ccc(Cl)cc1S(=O)(=O)Nc1cncc(C(N)=O)c1 [SBI-425, 5-((5-chloro-2-methoxyphenyl)sulfonamido) nicotinamide] | 340 | significantly inhibited TTM-002 transduction |  |  |  |  |  |  | 
2 | B1 |  |  | 35 | 22 | 2 | 22 | 18 | 6.64 | 3.16
